Test results: US20260258115A1 (MAPP BIOPHARMACEUTICAL, published 2026)
Numbering of substitutions follows the chain as printed.

B1: ADI-14340 (antibody, V domains shown)
VH: EVQLVESGGGLVKPGGSLRLSCAASGFTLSSYTMNWVRQAPGRGLEWVSSIYSTSSYIYYADSVKGRFTISRDNAKNSLYLQMNSLRAEDTAVYYCARDSQAVTGTDLYFDSWGQGTLVTVSS
VL: QPGLTQPPSVSVAPGKTARITCGGNNIGRKNVHWYQQKPGQAPILVIYYDSDRPSGIPERFSGSNSGNTATLTISRVEDGDEADYYCQVWDSSNDHVIFGGGTQLTVL
notes: full-length IgG; also called Ab 8
B2: ADI-14344 (antibody, V domains shown)
VH: QVQLVQSGGGLVQPGGSLRLSCAASGFTFRTYALSWVRQAPGKGLEWVSSILGSGGSTYYADSVKGRFTISRDNSKNTLYLQLNSLRAEDTAVYFCAKLAVAGLLHHYYGLDVWGQGTTVTVSS
VL: SYELTQPPSVSVSPGQTASITCSGDKLENKYACWYQQKPGQSPVLLIYQDTKRPSGIPERFSGSNSGTTATLTISGTQALDEADYYCQAWDSSTASVLFGGGTQLTVL
notes: full-length IgG; also called Ab 12
B3: ADI-14345 (antibody, V domains shown)
VH: QITLKESGAEVKKPGASVKVSCKVSGYTLSDFSMHWVRQAPGKGLEWMGSFDPEDGETVDAQKFQGRVTMTEDRSTATAYMELRSLRSEDTAVYYCGTPASAGQVDYWGQGTLVTVSS
VL: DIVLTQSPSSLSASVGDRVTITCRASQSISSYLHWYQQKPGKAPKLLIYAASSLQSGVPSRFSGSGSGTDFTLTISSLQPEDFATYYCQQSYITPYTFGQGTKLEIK
notes: full-length IgG; also called Ab 13
B4: ADI-14346 (antibody, V domains shown)
VH: EVQLLESGGGLVKPGGSLRLSCAASGFRFSSYSMNWVRQAPGKWLEWVSSISASSSYTDYADSVKGRFTISRDNAKNSLYLQMNSLRAEDTAVYYCAREDYLSSGSLLHWFDPWGQGTLVTVSS
VL: QPVLTQPPSVSGAPGQRVTISCTGSSSNIGAGYDVHWYQQLPGTAPKLLIYGNNNRPSGVPDRFSGSKSGTSASLAITGLQAEDEADYYCQSYDSRLSVLFGGGTKVTVL
notes: full-length IgG; also called Ab 14
B5: ADI-14347 (antibody, V domains shown)
VH: EVQLVESGGGLVKPGGSLRLSCAASGFTFRDYYMNWIRQAPGKGLEWVSDISASSSYTNYADSVKGRFTISRDNAKTSLYLQMNSLRAEDTAVYYCAREVVTAMGGYYFDYWGQGTLVTVSS
VL: QSVVTQPPSVSGAPGQRVTISCTGSSSNIGAGYDVHWYQQLPGTAPKLLIYGNNNRPSGVPDRFSGSKSGTSASLAITGLQAEDEADYYCQSYDSSLSGSGVFGTGTKVTVL
notes: full-length IgG; also called Ab 15
B6: ADI-14357 (antibody, V domains shown)
VH: EVQLVESGGGVVQPGRSLRLSCAASGFTFSNYAMHWVRQAPGKGLEWVSIISYDGSNKYYADSVKGRFTISRDNSKNTLYLQINSLRTEDTAVYYCARARKRIPIVVVTAPYYYGMDVWGQGTTVTVSS
VL: DIRVTQSPSSLSASVGDRVTITCRASQSISSYLHWYQQQPGKAPNLLIYAASNLQSGVPSRFSGSGSGTDFTLTISSLQPEDFATYYCQQSYTTPHTFGQGTKVEIK
notes: full-length IgG; also called Ab 25
B7: ADI-14364 (antibody, V domains shown)
VH: QVQLVQSGAEVKKPGESLKISCKGSGYSFTSHWIGWVRQMPGKGLEWMGITDPGDSDTRYSPSFQGQVTISADKSISTAYLQWSSLKASDTAMYYCAREPRRWMTTETNGPYYFDNWGQGTLVTVSS
VL: SYVLTQPPSVSVAPGKTARITCGGNNIGSKSVHWYQQKPGQAPVLVIYYDSDRPSGIPERFSGSNSGNTATLTISRVEAGDEADYYCQVWDSSSDNRVFGGGTKVTVL
notes: full-length IgG; also called Ab 32
B8: ADI-14367 (antibody, V domains shown)
VH: EVQLLESGGGLVQPGGSLRLSCAASGFTFGSYDMNWVRQAPGKGLEWVSGISGSGDATYYADSVKGRFTISRDNSKNMLYLQMNSLSAEDMAVYYCARDRAFTMKYNSNWYKIYWGQGTMVTVSS
VL: EIVLTQSPGTLSLSPGERATLSCRASQSVTSSYLAWYQQKPGQAPRLLIYGAFSRATGIPDRFSGSGSGTDFTLTISRLEPEDFAVYYCHHYGTSRWTFGQGTKVDIK
notes: full-length IgG; also called Ab 35
B9: ADI-25549 (antibody, V domains shown)
VH: QVQLVQSGGGLVKPGGSLRLSCAASGFTFSSYSMNWVRQAPGKGLEWVSSISSSSSYIYYADSVKGRFTISRDNAKNSLYLQMNSLRAEDTAVYYCARVSSGWYGGGAYYFDYWGQGTLVTVSS
VL: B5 VL with N54S, G99A, S100L, G101Y
notes: full-length IgG
B10: ADI-25555 (antibody, V domains shown)
VH: QVQLVQSGGGLVKPGGSLRLSCAASGFTFSSYSMNWVRQAPGKGLEWVSSISSSSSYIYYADSVKGRFTISRDNAKNSLYLQMNSLRAEDTAVYYCARQRGGIAVAGTYFDLWGRGTLVTVSS
VL: QPVLTQPPSVSGAPGQRVTISCTGSSSNIGAGYDVHWYQQLPGTAPKLLIYGNSNRPSGVPDRFSGSKSGTSASLAITGLQAEDEADYYCQSYDSTVVFGGGTKLTVL
notes: full-length IgG
B11: ADI-25562 (antibody, V domains shown)
VH: QVQLVESGGGLVKPGGSLRLSCAASGFTFSDYYMSWIRQAPGKGLEWVSYISSSSSYTNYADSVKGRFTISRDNAKNSLYLQMNSLRAEDTAVYYCARVGYSSSWYNYFDYWGQGTLVTVSS
VL: SYVLTQPPSVSGAPGQRVTISCTGSSSNIGAGYDVHWYQQLPGTAPKLLIYGNSNRPSGVPDRFSGSKSGTSASLAITGLQAEDEADYYCQSYDSSLSGPVFGGGTKLTVL
notes: full-length IgG; also called Ab 453
B12: ADI-25567 (antibody, V domains shown)
VH: QVQLQQWGAGLLKPSETLSLTCAVYGGSFSGYYWSWIRQPPGKGLEWIGEINHSGSTNYNPSLKSRVTISVDTSKNQFSLKLSSVTAADTAVYYCARGLPRFGVVTPNWFDPWGQGTLVTVSS
VL: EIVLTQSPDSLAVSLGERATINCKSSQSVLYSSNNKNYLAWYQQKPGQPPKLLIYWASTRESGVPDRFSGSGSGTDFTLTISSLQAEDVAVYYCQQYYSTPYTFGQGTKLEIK
notes: full-length IgG
B13: ADI-19420 (antibody, V domains shown)
VH: EVQLLESGGGLVKPGGSLRLSCAASGFTFSSYSMNWVRQAPGKGLEWVSSISSSSSYIYYADSVKGRFTISRDNAKNSLYLQMNSLRAEDTAVYYCARVGWGYSYGYWFDPWGQGTLVTVSS
VL: B11 VL with S1Q, Y2S, P100V
notes: full-length IgG
B14: ADI-19421 (antibody, V domains shown)
VH: EVQLLESGGGVVQPGRSLRLSCAASGFTFSSYGMHWVRQAPGKGLEWVAVISYDGSNKYYADSVKGRFTISRDNSKNTLYLQMNSLRAEDTAVYYCAKDIHHVLRFLDPDYWGQGTLVTVSS
VL: QSVLIQPASVSGFPGQSITISCTGTSSDVGGYNYVSWYQQHPGKAPKLMIYEVSNRPSGVSNRFSGSKSGNTASLTISGLQAEDEADYYCSSYTSSSTLVFGGGTKLTVL
notes: full-length IgG
B15: ADI-19422 (antibody, V domains shown)
VH: not shown
VL: B7 VL with S1Q, Y2P, I47V, Y49D, N96H, R97W, V105L
notes: full-length IgG
B16: ADI-19424 (antibody, V domains shown)
VH: EVQLLESGGGLVQPGGSLRLSCAASGFTVSSNYMSWVRQAPGKGLEWVSDIYSGGRTDYADSVKGRFTISRDNSKNTLDLQMNSLRAEDTAVYYCARETLGMDHWYFDLWGRGTLVTVSS
VL: B7 VL with S1Q, Y2P, V3G, I47V, Y49D, S93T, N96H, R97P, V105L
notes: full-length IgG
B17: ADI-19425 (antibody, V domains shown)
VH: EVQLVESGGGLVKPGGSLRLSCAASGFTFSSYSMNWVRQAPGKGLEWVSSISSSSSYIYYADSVKGRFTISRDNAKNSLYLQMNSLRAEDTAVYYCARLGYCSGGSCHFDYWGQGTLVTVSS
VL: B5 VL with S2P, V4L, N54S, S100F, G101Y, V109L
notes: full-length IgG; also called Ab 140
B18: ADI-41550 (antibody, V domains shown)
VH: QVQLVQSGAEVKMPGASVRVSCKASGYTLGSHGITWVRQAPGQGLEWMGWISANNFNTHYAQKFQGRVTMTTDTSTSTAYMELRSLRSDDTAVYYCAREVMGHMVETISFDYWGQGTLVTVSS
VL: QPVLTQPPSVSVAPGQTARITCGGNNIGSESVHWYQQKPGQAPVLVVHDDSDRPSGIPERFSGSNSGNTATLTISRVEAGDEADYYCQVWDFTPDHPVFGGGTKVTVL

Biological target: T1, RSV prefusion F (preF), subtype B (respiratory syncytial virus subtype B)
T1 construct: also called Prefusion subtype B
Assay: BLI, IgG

Going from B1 to B2, the Kd falls from 98 nM to 0.586 nM (170-fold).

Going from B3 to B4, the Kd falls from 5.26 nM to 0.925 nM (5.7-fold).

Compared with B5, B6 is 8.3-fold lower in Kd: 2.54 nM for the first, 0.306 nM for the second. The second binds more tightly here.

Compared with B7, B8 is 230-fold lower in Kd: 61.6 nM for the first, 0.269 nM for the second. The second binds more tightly here.

First: B9
Second: B10
The Kd of the first is 1.6-fold lower: 28.8 nM for the first, 44.7 nM for the second.

B11 and B12 are within 1.5-fold of each other in Kd: 3.32 nM for the first, 3.83 nM for the second.

First: B13
Second: B14
The Kd of the first is 2.2-fold lower: 2.47 nM for the first, 5.42 nM for the second. The first binds more tightly here.

Compared with B15, B16 is 6.3-fold lower in Kd: 10.8 nM for the first, 1.71 nM for the second. The second binds more tightly here.

In the case of B17, the Kd is reported as 1.37 nM.

Biological target: RSV F on RSV subtype B virus (mKate-RSV B 18537) (respiratory syncytial virus B 18537, UniProt P13843 26-574)
Assay: cell-based or functional assay

Going from B1 to B2, the “Neut IC50 subtype B” value falls from 1.94 µg/mL to 1.2 µg/mL (1.6-fold).

Going from B3 to B4, the “Neut IC50 subtype B” value falls from 0.87 µg/mL to 0.07 µg/mL (12-fold).

First: B5
Second: B6
The “Neut IC50 subtype B” value of the first is 18-fold lower: 0.05 µg/mL for the first, 0.88 µg/mL for the second.

First: B7
Second: B8
The “Neut IC50 subtype B” value of the first is 7.2-fold higher: 2.39 µg/mL for the first, 0.33 µg/mL for the second.

Compared with B9, B10 is 2-fold higher in “Neut IC50 subtype B” value: 6.02 µg/mL for the first, 12.1 µg/mL for the second.

First: B11
Second: B12
The “Neut IC50 subtype B” value of the first is 1.7-fold lower: 1.14 µg/mL for the first, 1.94 µg/mL for the second.

Going from B13 to B14, the “Neut IC50 subtype B” value rises from 0.64 µg/mL to 3.3 µg/mL (5.2-fold).

Going from B15 to B16, the “Neut IC50 subtype B” value falls from 1.9 µg/mL to 0.21 µg/mL (9-fold).

For B17, the “Neut IC50 subtype B” value was 0.04 µg/mL.

Biological target: RSV F on RSV subtype A virus (mKate-RSV A2) (respiratory syncytial virus A2, UniProt P03420 26-574)
Assay: cell-based or functional assay

B1 and B2 are within 1.5-fold of each other in “Neut IC50 subtype A” value: 6.63 µg/mL for the first, 8.68 µg/mL for the second.

First: B3
Second: B4
The “Neut IC50 subtype A” value of the first is 46-fold higher: 2.3 µg/mL for the first, 0.05 µg/mL for the second.

Going from B5 to B6, the “Neut IC50 subtype A” value rises from 0.11 µg/mL to 1.24 µg/mL (11-fold).

First: B7
Second: B8
The “Neut IC50 subtype A” value of the first is 130-fold lower: 0.03 µg/mL for the first, 3.94 µg/mL for the second.

First: B9
Second: B10
The “Neut IC50 subtype A” value of the first is 1.6-fold lower: 11.5 µg/mL for the first, 18.6 µg/mL for the second.

First: B11
Second: B12
The “Neut IC50 subtype A” value of the first is 3.6-fold higher: 1.18 µg/mL for the first, 0.33 µg/mL for the second.

Going from B13 to B14, the “Neut IC50 subtype A” value rises from 0.55 µg/mL to 10 µg/mL (18-fold).

First: B15
Second: B16
The “Neut IC50 subtype A” value of the first is 9.1-fold higher: 0.73 µg/mL for the first, 0.08 µg/mL for the second.

In the case of B17, the “Neut IC50 subtype A” value is reported as 0.02 µg/mL.

Biological target: RSV F on RSV-A2 virus (Respiratory Syncytial Virus (RSV-A2), UniProt P03420 26-574)
Assay: cell-based or functional assay

For B18, the “Neutralization IC50 (RSV subtype A)” value was > 25 µg/mL.

Biological target: RSV postfusion F (postF), F ΔFP (Respiratory Syncytial Virus, UniProt P03420 26-513)
Assay: BLI, IgG on anti-human IgG sensor, 100 nM antigen, 1:1 fit

In the case of B18, the Kd is reported as 25.7 nM.

Biological target: T2, RSV postfusion F (postF), subtype A (respiratory syncytial virus subtype A, UniProt P03420 26-513)
T2 construct: also called Postfusion subtype A; F deltaFP
Assay: BLI

B1: no binding.
B2: no binding.
B3: no binding.
B4: no binding.
B5: no binding.
B6: no binding.
B7: no binding.
B8: no binding.
B9: no binding.
B10: no binding.
B11: no binding.
B12: no binding.
B13: no binding.
B14: no binding.
B15: no binding.
B16: no binding.
B17: no binding.
